Measurements as given in the RNAGym collection of RNA variant scans (doi:10.7554/elife.80360).

B1: CPEB3 Ribozyme (parent)
chain: GGGGGCCACAGCAGAAGCGUUCACGUCGCGGCCCCUGUCAGAUUCUGGUGAAUCUGCGAAUUCUGCUGU

Variants of: B1
Experiment: self-cleavage, relative activity (ratio to wild type); higher = more cleavage; co-transcriptional

Going from G58C G68U to G58C G68C, the self-cleavage falls from 1.02 to 0.963.

Going from G58C G68A to A59U G65U, the self-cleavage falls from 1 to 0.329.

First: A59U G65A
Second: A59U G65C
The self-cleavage of the first is higher: 0.531 for the first, 0.497 for the second.

Going from A59C U69A to A59C U69G, the self-cleavage rises from 0.813 to 0.824.

First: A59C U69C
Second: A59G A60U
The self-cleavage of the first is higher: 0.934 for the first, 0.352 for the second.

Compared with A59G A60G, G58A C66A is higher in self-cleavage: 0.533 for the first, 0.81 for the second.

Going from G58A C66G to G58A C66U, the self-cleavage rises from 0.881 to 0.938.

A59U U69C and G58U U67G are the same in self-cleavage: 1.02 for the first, 1.02 for the second.

First: G58U U67A
Second: G58U U67C
The self-cleavage of the first is lower: 0.982 for the first, 1.01 for the second.

Going from A59C G68A to A59C G68U, the self-cleavage rises from 0.908 to 0.939.

Going from A60U C63G to A60U C63U, the self-cleavage rises from 0.38 to 0.479.

First: A60U C63A
Second: A59G G65C
The self-cleavage of the first is lower: 0.391 for the first, 0.512 for the second.

Compared with A59G G65U, A59U C63G is lower in self-cleavage: 0.694 for the first, 0.545 for the second.

Compared with A59U C63U, A60G U61G is lower in self-cleavage: 0.734 for the first, 0.533 for the second.

Going from A60G U61A to A60G G65U, the self-cleavage falls from 0.632 to 0.412.

First: A60G G65A
Second: G58C U67C
The self-cleavage of the first is lower: 0.373 for the first, 0.961 for the second.

Going from G58C U67A to G58C C66G, the self-cleavage falls from 0.988 to 0.884.

Going from G58C C66A to G58A G65A, the self-cleavage rises from 0.818 to 0.901.

Going from A59U G68C to A59C C66A, the self-cleavage falls from 0.941 to 0.365.

First: A59C C66G
Second: A59C U61C
The self-cleavage of the first is lower: 0.441 for the first, 0.446 for the second.

First: G58A A60U
Second: G58A A60G
The self-cleavage of the first is higher: 0.919 for the first, 0.83 for the second.

First: G58A A60C
Second: A59G U61C
The self-cleavage of the first is lower: 0.495 for the first, 0.785 for the second.

First: A59U U67A
Second: A59U U67C
The self-cleavage of the first is lower: 0.805 for the first, 0.867 for the second.

First: A60U C66U
Second: G58A U67A
The self-cleavage of the first is lower: 0.505 for the first, 0.968 for the second.

First: G58A U67C
Second: G58A U61C
The self-cleavage of the first is higher: 0.993 for the first, 0.82 for the second.

First: G58A U61G
Second: G58A U61A
The self-cleavage of the first is higher: 0.861 for the first, 0.827 for the second.

Going from A59G C63A to A59G C63G, the self-cleavage falls from 0.857 to 0.691.

Compared with G58C U62A, G58C U62C is lower in self-cleavage: 0.918 for the first, 0.902 for the second.

Compared with A59C A60C, A59C A60G is higher in self-cleavage: 0.38 for the first, 0.535 for the second.

Going from A60G U62C to A60G U62G, the self-cleavage rises from 0.436 to 0.687.

Compared with A59G U64A, A59G U64C is higher in self-cleavage: 0.861 for the first, 0.873 for the second.

Compared with A60C G65C, G58C U69A is higher in self-cleavage: 0.449 for the first, 0.998 for the second.

Compared with G58C U69G, A59C G65C is lower in self-cleavage: 1.05 for the first, 0.374 for the second.

Going from A59G C66G to A59G C66A, the self-cleavage falls from 0.893 to 0.779.

First: G58U U62C
Second: G58U U62A
The self-cleavage of the first is lower: 0.953 for the first, 0.958 for the second.

Going from G58U U62G to A59U U61G, the self-cleavage falls from 1.01 to 0.512.

Compared with A59U U61A, A59U U61C is lower in self-cleavage: 0.443 for the first, 0.358 for the second.

First: A59U U62A
Second: A59U U62C
The self-cleavage of the first is lower: 0.536 for the first, 0.546 for the second.

Compared with A59U U62G, G58U U64A is higher in self-cleavage: 0.394 for the first, 0.956 for the second.

Going from G58U U64C to G58U U64G, the self-cleavage rises from 0.959 to 0.971.

Going from A60C C66G to A60C C66U, the self-cleavage falls from 0.456 to 0.412.

Compared with A59C C63A, A60U G65A is higher in self-cleavage: 0.43 for the first, 0.527 for the second.

First: G58U A60U
Second: G58U A60G
The self-cleavage of the first is lower: 0.331 for the first, 0.977 for the second.

Compared with A59G U67G, A59G U67A is lower in self-cleavage: 1.03 for the first, 0.991 for the second.

Compared with A59G U67C, A59U C66U is lower in self-cleavage: 0.976 for the first, 0.775 for the second.

Compared with A60C U69C, G58A G68A is higher in self-cleavage: 0.627 for the first, 0.944 for the second.

Compared with G58A A59U, G58C C63G is higher in self-cleavage: 0.592 for the first, 0.823 for the second.

Going from G58C C63A to G58C C63U, the self-cleavage rises from 0.906 to 0.997.

Going from A59C U67C to A59C U67A, the self-cleavage falls from 0.806 to 0.689.

First: G58A U62C
Second: G58A U69A
The self-cleavage of the first is lower: 0.872 for the first, 0.99 for the second.

Compared with G58A U69G, G58C G65U is lower in self-cleavage: 1.02 for the first, 0.842 for the second.

First: G58C G65A
Second: A60C U62G
The self-cleavage of the first is higher: 0.844 for the first, 0.429 for the second.

First: A59G U69G
Second: A59G U69A
The self-cleavage of the first is higher: 1.07 for the first, 1.04 for the second.

First: A60G U69G
Second: G58U A59U
The self-cleavage of the first is higher: 1.01 for the first, 0.749 for the second.

Going from G58U A59C to A59C U62C, the self-cleavage falls from 0.8 to 0.407.

Going from A59C U62G to A59U A60U, the self-cleavage falls from 0.423 to 0.312.

Going from A59U A60G to A59U A60C, the self-cleavage falls from 0.56 to 0.343.

Going from G58C A59C to G58C A59G, the self-cleavage rises from 0.636 to 0.982.

First: G58C A59U
Second: G58C A60G
The self-cleavage of the first is higher: 0.701 for the first, 0.683 for the second.

Going from G58C A60C to G58U C66U, the self-cleavage rises from 0.359 to 1.02.

Going from G58U C66A to A60G G68U, the self-cleavage rises from 0.928 to 0.954.

Compared with G58A U64A, G58A U64C is lower in self-cleavage: 0.92 for the first, 0.861 for the second.

Going from G58U U69G to A59C U64G, the self-cleavage falls from 1.03 to 0.633.

Compared with A59C U64A, A60C G68C is lower in self-cleavage: 0.471 for the first, 0.392 for the second.

First: A60C G68U
Second: A59U U64G
The self-cleavage of the first is lower: 0.395 for the first, 0.729 for the second.

Going from A59U U64C to A59U U64A, the self-cleavage falls from 0.558 to 0.459.

Compared with A60G U67G, A60G U67C is lower in self-cleavage: 0.902 for the first, 0.747 for the second.

Compared with G58C U64C, G58C U64A is higher in self-cleavage: 0.777 for the first, 0.955 for the second.

First: G58U U61G
Second: G58U U61C
The self-cleavage of the first is higher: 0.908 for the first, 0.892 for the second.

Going from G58U C63U to G58U C63G, the self-cleavage falls from 1.03 to 1.01.

Compared with A60G C66G, A60G C66A is higher in self-cleavage: 0.559 for the first, 0.582 for the second.

Going from A60G C66U to G58U G65C, the self-cleavage rises from 0.818 to 0.863.

Going from A60C U61A to A60C U61G, the self-cleavage falls from 0.472 to 0.3.

Compared with G58C U61G, G58C U61A is lower in self-cleavage: 0.912 for the first, 0.877 for the second.

Going from G58U G68C to G58U G68A, the self-cleavage falls from 1.03 to 0.993.

Compared with G58U G68U, G58A C63G is lower in self-cleavage: 0.966 for the first, 0.757 for the second.

Going from G58A C63U to A59G G68A, the self-cleavage rises from 0.957 to 1.

Compared with A59G G68U, A59G U62C is lower in self-cleavage: 1.02 for the first, 0.717 for the second.

Compared with A59G U62G, A60C U67G is lower in self-cleavage: 0.944 for the first, 0.37 for the second.

Compared with A60C U67A, A60C U67C is lower in self-cleavage: 0.358 for the first, 0.313 for the second.

Compared with A60G C63G, A60G C63A is lower in self-cleavage: 0.545 for the first, 0.429 for the second.

First: A60G C63U
Second: A60C U64A
The self-cleavage of the first is higher: 0.867 for the first, 0.267 for the second.

First: A60C U64G
Second: A60C C63G
The self-cleavage of the first is lower: 0.333 for the first, 0.344 for the second.

Variant A60C C63U has a self-cleavage of 0.468.
